The target in experiment [1] is HIV-1 subtype B JR-FL envelope (Env) on pseudovirus (HIV-1 subtype B) (UniProt Q75760).
Experiment [2] has as its target HIV-1 subtype C Du156.12 envelope (Env) on pseudovirus (HIV-1 subtype C).
Experiment [3] concerns the target HIV-1 subtype B CAAN5342.A2 envelope (Env) on pseudovirus (HIV-1 subtype B).
Experiment [4] concerns the target HIV-1 subtype A Q168.a2 envelope (Env) on pseudovirus (HIV-1 subtype A).
Experiment [5] has as its target HIV-1 subtype C COT6.15 envelope (Env) on pseudovirus (HIV-1 subtype C).
Experiment [6] addresses HIV-1 subtype C DU151.2 envelope (Env) on pseudovirus (HIV-1 subtype C).
The target of experiment [7] is HIV-1 subtype C Du179.14 envelope (Env) on pseudovirus (HIV-1 subtype C).
For experiment [8], the target named is HIV-1 subtype B PVO.4 envelope (Env) on pseudovirus (HIV-1 subtype B).
Experiment [9] deals with HIV-1 subtype B QH0692.42 envelope (Env) on pseudovirus (HIV-1 subtype B).
Experiment [10] deals with HIV-1 subtype C CAP206.8 envelope (Env) on pseudovirus (HIV-1 subtype C).
Experiment [11] deals with HIV-1 subtype A Q23.7 envelope (Env) on pseudovirus (HIV-1 subtype A).
For experiment [12], the target named is HIV-1 RF envelope glycoprotein (Env) on virus (HIV-1 (RF)) (UniProt P04579).
The target in experiment [13] is monomeric, glycosylated, baculovirus-produced HIV-1 IIIB gp120 (HIV-1 (IIIB)). As to the kind of experiment: ITC; lectin (180 μM) in the syringe, gp120 (2.5 μM) in the cell; 55 injections of 5 μl, 600 s spacing, 300 rpm, 30°C; VP-ITC. (ITC needs no label: the signal is the heat of the interaction.)

The Kd is a measure of binding affinity in units of concentration. The low end stands for tighter binding, the high end for weaker binding. Consider “2mGRFT3, tandem repeat of two mGRFT (1GS-S) domains joined by a (Gly-Thr-Gly)3 linker (designed binder)”, for which the IC50 of neutralisation, single cycle Tzm-bl pseudovirus assay in [1] worked out at 5.77 nM; in experiment [2] it was 0.0616 nM; in experiment [3], 16.9 nM; in experiment [4], 5.28 nM; in experiment [5], 2.54 nM; in experiment [6], 1.7 nM. Besides, the IC50 of neutralisation, single cycle Tzm-bl pseudovirus assay amounted to 0.144 nM in experiment [7]; 0.558 nM in [8]; 0.513 nM in experiment [9]; 0.696 nM in experiment [10]; 7.16 nM in [11]. The same substance gave an Anti-HIV EC50: concentration at which 50% of CEM-SS cells are protected from the cytopathic effects of HIV-1RF infection (XTT assay) in experiment [12] of 0.0026 nM. The Kd in experiment [13] was determined as 3 nM. Further, in experiment [13], the dH was -47.2 kcal/mol.

“monomeric griffithsin mGRFT (1GS-S) (from UniProt P84801 16-121) (natural protein)” displayed an Anti-HIV EC50: concentration at which 50% of CEM-SS cells are protected from the cytopathic effects of HIV-1RF infection (XTT assay) in experiment [12] of 119 nM. In experiment [13], this substance gave a Kd of 112 nM and a dH of -35.5 kcal/mol.

Regarding “griffithsin (GRFT), native domain-swapped homodimer (from UniProt P84801 1-121) (natural protein)”, the IC50 of neutralisation, single cycle Tzm-bl pseudovirus assay was 0.922 nM in experiment [1]; 0.0324 nM in experiment [2]; 7.34 nM in experiment [3]; 3.8 nM in experiment [4]; 0.734 nM in [5]; 1.49 nM in [6]. Also, the IC50 of neutralisation, single cycle Tzm-bl pseudovirus assay in experiment [7] was 0.606 nM; in experiment [8], 0.037 nM; in [9] it was 0.0473 nM; in [10] it was 2.14 nM; in [11] it was 1.19 nM. Also, in experiment [12], the Anti-HIV EC50: concentration at which 50% of CEM-SS cells are protected from the cytopathic effects of HIV-1RF infection (XTT assay) came out at 0.0138 nM. In addition, the Kd in experiment [13] stood at 8 nM. This substance yielded a dH in experiment [13] of -30.4 kcal/mol.

Turning to “2mGRFT, tandem repeat of two mGRFT (1GS-S) domains joined by a Gly-Thr-Gly linker (designed binder)”, the IC50 of neutralisation, single cycle Tzm-bl pseudovirus assay in experiment [1] was determined as 2.09 nM; in [2] it was 0.0182 nM; in [3], 5.27 nM; in experiment [4], 1.55 nM; in experiment [5] it was 1.46 nM; in experiment [6], 0.694 nM. Besides, the IC50 of neutralisation, single cycle Tzm-bl pseudovirus assay in [7] is 0.158 nM; in [8] it was 0.301 nM; in experiment [9], 0.202 nM; in experiment [10], 0.178 nM; in [11], 7.26 nM. This substance yielded an Anti-HIV EC50: concentration at which 50% of CEM-SS cells are protected from the cytopathic effects of HIV-1RF infection (XTT assay) in experiment [12] of 0.0027 nM. Moreover, the dissociation constant Kd in experiment [13] came to 5 nM. In experiment [13], this substance displayed a dH of -69.6 kcal/mol.

“3mGRFT, tandem repeat of three mGRFT (1GS-S) domains joined by Gly-Thr-Gly linkers (designed binder)”: the IC50 of neutralisation, single cycle Tzm-bl pseudovirus assay worked out at 0.325 nM in experiment [1]; 0.0794 nM in experiment [2]; 0.326 nM in [3]; 0.331 nM in experiment [4]; 0.412 nM in experiment [5]; 0.308 nM in experiment [6]. The IC50 of neutralisation, single cycle Tzm-bl pseudovirus assay amounted to 0.124 nM in experiment [7]; 0.27 nM in experiment [8]; 0.223 nM in [9]; 0.181 nM in experiment [10]; 0.432 nM in experiment [11]. The Anti-HIV EC50: concentration at which 50% of CEM-SS cells are protected from the cytopathic effects of HIV-1RF infection (XTT assay) in experiment [12] amounted to 0.001 nM. In [13], this substance gave a Kd of 3 nM. This substance had a dH in experiment [13] of -74.4 kcal/mol.

In the case of “4mGRFT, tandem repeat of four mGRFT (1GS-S) domains joined by Gly-Thr-Gly linkers (designed binder)”, the IC50 of neutralisation, single cycle Tzm-bl pseudovirus assay in [1] is 0.287 nM; in experiment [2] it was 0.0887 nM; in [3], 0.232 nM; in experiment [4] it was 0.273 nM; in [5] it was 0.273 nM; in [6] it was 0.3 nM. Also, the IC50 of neutralisation, single cycle Tzm-bl pseudovirus assay was 0.0934 nM in experiment [7]; 0.185 nM in experiment [8]; 0.17 nM in experiment [9]; 0.164 nM in experiment [10]; 0.276 nM in experiment [11]. In experiment [12], this substance registered an Anti-HIV EC50: concentration at which 50% of CEM-SS cells are protected from the cytopathic effects of HIV-1RF infection (XTT assay) of 0.0012 nM.

The values above are taken from article PMC4419512.
